Test results taken from a protein production outcome set (Wang et al. 2014).

test: label from the status in PepcDB records

Question: With “MGLFTDGFKLLKKASEPLYKTPKSIQETIEIMAVAENGIFEVSKNKYSKCYRFQDINYTTATEDEQIGIFERYCKFLNSLDCNYKITINNKNKNMDELRDKVLIAEKNDGFNNYRRIYNDIIEEKIIEGRQGIEQERYLTITIERKNFEEAKAQFATLEATIHKAFIELGAEIVPLNGNERLKVLYDYYHLGDEGSFDFDIKKAKKVGADFRNDLCNGMVKYFPDHFEDESKFCKALFIKKYPSSLSDRFINEITSLPVHSITSIDVVPVPKDLTTKVLQKKYLGIESDIIKQQRVRNKNNDFSTEISYAKRTEKKEIEEIMDDVRENDQCLFFVGVTIILMAESKKELESVCETVETIGKRNSCTIDTHYLKQREALNTALPIGVRQVETMRTLLTQSLAVLMPFNVQELNDSTGNYYGINQISKNVNIGNRKKLINGNGFVFGVPGSGKSFFCKMEMGSVFLSGDDEIIVIDPMNEYFDIAETYGGTVVNMSTYTDNYVNPLEMDVWSLDPNDSKGMVREKGEFMLGLCEQCIGDSLNSRQKSIIDRCVRKLYIDIARSKEKYIPVMSDFYDILMAQPEDEAKDIALSLELFVNGSLNIFNHQTNVDVDNRFTVYGIRDLGTELSPITMLVMMESIQNRIVENGKRGKATWLYIDEFHVLLNSEYSAKYLQQLWKKVRKQGGLCTGITQNVVDLLQNYTATTMLANSEFVALLKQANTDSSKMAEVIGVSEAQLRFVTNTASGMGLIKCGSVVIPFDNQISKDTDLYKLYNTNIHEIIEMKKHANEKNVNSL” as the sequence, how does the protein production read?
Answer: Its protein production is “failed”.

Question: With “MGLGRQSLNIMTFSGQELTAIIKMAKSMVMADGKIKPAEIAVMTREFMRFGILQDQVDLLLKASDSIEASQAVALIARMDEERKKYVASYLGVIMASDGDIDDNELALWTLISTLCGLPTMTVMEAINNMKNL” as the sequence, how does the protein production read?
Answer: The protein production was “not failed”.

Question: For “MGLKSNSAILPKALFCWSGGKDSAYCLHKVLLEKQFDVCYLLTTVNDTFKRISMHGVRETLLDKQTESIGIPCIKIRIKEGTNSEYEQLMETTLLKAKEEGITHVIFGDIFLEDLRTYRENNLDKVGLQAVFPLWKMDTGILIRDFIRKKFKTILCCINDGYLDETWAGREIDAVFIAQLPGHVDPCGENGEYHTFCYDGPLFQKAITVSTGEKIYKPLDYSLDDVCQSTVPTKGFWYCDLIPD”, which protein production is on record?
Answer: The protein production was “failed”.

Question: Which protein production does the source give for “MGLSRVRAVFFDLDNTLIDTAGASRRGMLEVIKLLQSKYHYKEEAEIICDKVQVKLSKECFHPYSTCITDVRTSHWEEAIQETKGGADNRKLAEECYFLWKSTRLQHMILADDVKAMLTELRKEVRLLLLTNGDRQTQREKIEACACQSYFDAIVIGGEQKEEKPAPSIFYHCCDLLGVQPGDCVMVGDTLETDIQGGLNAGLKATVWINKSGRVPLTSSPMPHYMVSSVLELPALLQSIDCKVSMSV” here?
Answer: The protein production was “not failed”.

Question: Which protein production does the source give for “MGLSVGIVGLPNVGKSSTFNALTKTQNAQSANYPFCTIEPNKAIVNVPDRRLDALAQIVKPERILHSVVEFVDIAGLIKGASKGEGLGNQFLANIKECEVILQVVRCFEDDNITHVNDKIDPLNDIETIELELILADIAALDKRIDRLQKALKSSKDAKNLLECALSLKTHLEELKPAKTFPLNTSEAFLELDKELRFLSHKKMIYVANVGEEDLNALNEHAKKVKNHAKEQNSEFVALCAKLEEEMVSMSGDEVKEFLQSLGVEESGLEKTIRLSFKELGLINYFTAGVKEVRSWTIKKGSSAPVAAGVIHKDFEKGFIRAETISYDDFIAYKGEAGAKEKGALRIEGKDYIVQDGDVLHFRFNI” here?
Answer: Its protein production is “failed”.

Question: Which protein production does the source give for “MGMKDVFKRYLVFVIGLYFLAAGIVLIVRSALGTTPISSVNYVLSLNSPLSLGTCTFLINMLLILGQFWVIRKNKTRQDTIEILLQLPFSFIFSAFIDFNMALTSNLHPDNYGMSIALLLTGCMIQSIGVVLELKPKVAMMSAEAFVKYASRRYNKEFGKFKVCFDVTLVTLAVILSLLLSQCIEGVREGSLIAACITGYIVSFLNQKIMTRKTLYKLLPVLK” here?
Answer: Its protein production is “failed”.

Question: With “MGMVFGKIAVETPKYTVTKSGDGYEIREYPPAVAAEVTYDASEFKGDKDGGFQLLAKYIGVFGKPENEKPEKIAMTAPVITKEGEKIAMTAPVITKESEKIEMTSPVVTKEGGGEGRKKLVTMQFLLPSMYKKAEEAPRPTDERVVIKEEGGRKYGVIKFSGIASESVVSEKVKKLSSHLEKDGFKITGDFVLARYNPPWTLPPFRTNEVMIPVE” as the sequence, how does the protein production read?
Answer: Its protein production is “failed”.

Question: For “MGNCCVSSGTTDRENENVSDKNTTIVEEETVVKEVLSETTLFTPSSSFRTSTFKDPVKTKIREDEEKKPGFLKMASDPVLIRPGSVDPEEGSEVSEICSLSLSESVSSTVVMNGYDEEHVMMKQRKSQRSPAKTRTQVTGNNYPTRRTDQSPRKRNNGTCNGARYGSGVRDPGERSGRRSRSPATNRSVMDSNQSSRVGGAKTRKNNQSPGRVRLDPAKNGLDQQQHQNYGYTTEELLENPLVSLECFIFL”, which protein production is on record?
Answer: Its protein production is “failed”.

Question: Which protein production does the source give for “MGNCVFKGNGGSRKLYDKDDSLIKVVTPNGGVMELHPPIFAEFITNEFPGHVIHDSLSLRHSSPPLLHGEELFPGNIYYLLPLSSSAAATAQLDSSDQLSTPYRMSFGKTPIMAALSGGGCGVWKVRLVISPEQLAEILAEDVETEALVESVRTVAKCGGYGCGGGVHSRANSDQLSVTSSFKGKLW” here?
Answer: Its protein production is “not failed”.

Question: Which protein production does the source give for “MGNEEEKMNADIFSYEGEGIQCVYDNKNWVMCIKNWKPNNDIENIRYLEVHHATDEQFVLLKGKAVLLAAVKADGACRIDVIPMEPYKVYNIPQGIWFNTITQKDTKLVYVQDAATTAENSEYCDMTQEELNEVKEKASACLD” here?
Answer: Its protein production is “failed”.

Question: With “MGNFLRRSCAVHPASGDGGRGRHVDEPPQQRPSSVRIKVRMRRDQLEELLYLARRGDQSDDGGKIGFLILKECMEGRLPASVLGSGGDVRSQRRGSYMVYRRLGSITEE” as the sequence, how does the protein production read?
Answer: Its protein production is “failed”.

Question: For “MGNFTFEEMNLMCIYNTGSRTGLIDSLREMRGELSPEETELRELTDSALTKLCAMTDEDFAQLELYPDFDQLEHHHHHH”, which protein production is on record?
Answer: Its protein production is “not failed”.

Question: Which protein production does the source give for “MGNKLVNSLSKITTSSKEVTSDILVMNFTIVNAFLIGNKTQWVLVDTALENSADFILKAAEKRFGKGSVPKAIILTHGHFDHVGSVIKLSKLWSVPVYIHELEMPYVTGKKDYPLADPTVDEGMVAKISQTFPHTSIDISSNVSPLPSDSSIPYMPDWKWIHTPGHTDGHISLFREKDHVLIVGDAFCTTKQESLLSVITHHEEISGPPKYLTTDWAKAKNSIICLKNLKPLIAIPSHGEELSGEELTKHLELLINNFDEIAKPAEGQFVTNK” here?
Answer: Its protein production is “failed”.

Question: Which protein production does the source give for “MGNLKAEYLEQTYIDLAPLKDAEDCRTYLTRSQVDGSLAVRKEICALQYPLYQQLIDFSHPSLARVLETYTKDGRYFVLEEYVSGSTIGSYLKRGYHFQEHEILSFISQLCSALSFLHAHNIIHRDVTPENLLISTDNVLKLIDFGISRSKKEGQSQDTTILGTVGYAAPEQFGFGQTDERTDIYATGVLLNVLLTGSLPKDDLPFDPRYRQIVLKCTSISPADRYSSVSELKSQIMAIKPTRIYQAEIVEPSGKAPRKDSLIRRFFRHVPGFRTGNPGKMIVAIIGYFLMLLFVVVNGTRPLEPGDIRSEYWTINYFFVGVWAAYVNLGNYCGHIEAYDKVGPLTRLLLRTAVALAVFLTTGLLLYFENYCLK” here?
Answer: The protein production was “failed”.

Question: For “MGNNGRDILAGLSVAGLMLPEAIAYSGIAGVPPQHALYAAMAGCLVYALLGQSRFAIISPTSSSAAILAAMLAALVPQPGQKMLLVAVAVFLVGLFFLAAGTLRLGALSSIISRPVLRGFAFGLAILISLKQFPAIFGMPQAGAGTFEAILQILTNPGQWNGFSLSIGIAALILLLFARRYPQIPGSLIIIALAIPISVMFDLQQRGVDVVGPIDLSGIWGSVTTLSLDELAHVARFAPPLVLILFAESWGTIRGLSLRHGEDVDANRELKTLGIANVASAALQGMPVGAGFSAGAASEAANPRTRMASAIAAIGLAGFTFAAADWFAYIPHAALSAIIIVALLHALDPSPFLRLWRLRQDLVLALAATAGVLFLGVLNGMLAAIVLSFAVFLQRLSSPRIVMLGRLGASHDFVDVKRHPDAAEPAGMLVLRPAQPLFFGNAEPTFAEITRRILASPDINAVIISLEETFELDTTALEALLEFDASLRGRNIGIRYAPMHDAVRDVVAAGGGDDLLRRANYSVDDAVAAMDGLKEEK”, which protein production is on record?
Answer: The protein production was “failed”.

Question: With “MGNNNSTKESTHDNHSDSSTHEEMDHSGSADVPEGLQESKNPKYKVGSQVIINTSHMKGMKGAEATVTGAYDTTAYVVSYTPTNGGQRVDHHKWVIQEEIKDAGDKTLQPGDQVILEASHMKGMKGATAEIDSAEKTTVYMVDYTSTTSGEKVKNHKWVTEDELSAKLEHHHHHH” as the sequence, how does the protein production read?
Answer: Its protein production is “not failed”.

Question: Which protein production does the source give for “MGNQDTIIETDNGNSDYETPQPTSFPLEHNHFGVMEDGYIKIYEYNESRNEVKLKKEYADDELELEHHHHHH” here?
Answer: Its protein production is “not failed”.

Question: Which protein production does the source give for “MGNSLHQIKCCTSFIHCQNAAVDAPSIAKTLADYLYPAFFHQDLPAPLKISVTGCPNQCGGGVEADIGISGYFATVPRVDDAGLMAANIDFGHLISGCPVGAIRPRQVEGGTTVVINAERCIRCTSCIQVAPEGIKPGPERFVAIAVGGHGGNNRRGPEMAAVVFSRVPARPLDYAAICERVQRIIACWRDRGKRGERLAGFLERLEHHHHHH” here?
Answer: Its protein production is “failed”.

Question: With “MGNSQRQSEEIEAMAAIYGEEWCVIDENAKIFCIRVTDFMDDPKWTLCLQVMLPSEYPGTAPPSYQLNAPWLKGQERADLSNSLEEIYVHNMGESILYQWVEKIRDALIQKSQITEP” as the sequence, how does the protein production read?
Answer: The protein production was “not failed”.

Question: Which protein production does the source give for “MGNTIRALVAFIPADRCQNYVVRDLREMPLDKMVDLSGSQLRRFPLHVCSFRELVKLYLSDNHLNSLPPELGQLQNLQILALDFNNFKALPQVVCTLKQLCILYLGNNKLCDLPSELSLLQNLRTLWIEANCLTQLPDVVCELSLLKTLHAGSNALRLLPGQLRRLQELRTIWLSGNRLTDFPTVLLHMPFLEVIDVDWNSIRYFPSLAHLSSLKLVIYDHNPCRNAPKVAKGVRRVGRWAEETPEPDPRKARRYALVREESQELQAPVPLLPPTNS” here?
Answer: Its protein production is “failed”.

Question: Which protein production does the source give for “MGNTTSDRVSGERHGAKAARSEGAGGHAPGKEHKIMVGSTDDPSVFSLPDSKLPGDKEFVSWQQDLEDSVKPTQQARPTVIRWSEGGKEVFISGSFNNWSTKIPLIKSHNDFVAILDLPEGEHQYKFFVDGQWVHDPSEPVVTSQLGTINNLIHVKKSDFEVFDALKLDSMESSETSCRDLSSSPPGPYGQEMYAFRSEERFKSPPILPPHLLQVILNKDTNISCDPALLPEPNHVMLNHLYALSIKDSVMVLSATHRYKKKYVTTLLYKPI” here?
Answer: Its protein production is “not failed”.

Question: For “MGNVLFLVSLSLIWVMLLYHMFLMQGGFRHYMTFERNIPKWKENVKDLPKVSVLIPAHNEEVVIRQTLKAMVNLYYPKDRLEIIVVNDNSSDRTGDIVDEFSTQYGFIKMVVTKPPHAGKGKSSALNCGFAESNGDVICVYDADNTPEKMAVYYLVLGLMNDQKAGAVVGKFRVINAAKTLLTKFINIETICFQWMAQGGRWKWFKIATIPGTNFAIRRSIIEQLGGWDDKALAEDTELTIRVYNLGYHIRFFPAAVTWEQEPETWKVWWRQRTRWARGNQYVVLKFLAQFFKLKRKRIIFDLFYFFFTYFLFFFGVIMSNAIFVINLFYNLHLSFGFLSIILWVLAFFLFMTKVMITLSIEKTEMNRQNFFIVFLMYFTYSQAWIVLVIYSLFVEIKHRLFKQHGTKQNDTIKRKAGDFFEIYHHMSGKLLADHGDGTSGCSQRRYSRRLDPGGKQPGTSQAASAHKRSLDFIRGKRQRRADVSNTGGRLLYPSAAYT”, which protein production is on record?
Answer: Its protein production is “failed”.

Question: Which protein production does the source give for “MGPFLMRILALGLVAGAALAQGVQAWLERGERLLSEGAYAEAVAAFEEVLRQDYGQFQAHLGLGVALVRLGRLEEARFAFDQMTRVFPDRYEGHFNLGQVYLRMGEAGKAAEAFAKAAAIAPREEAYLAWSGALLQEGKAREAAAVLERGLSPERSPAYRLALAQALYAAGEREAAVPHLYAALNREPGRAEAWDLLARVLAEVGLADRARREVERGLEAVQDPKGKALLLLRKGTLVEDPEPLWREALALDPDLWQAAYLLGRRRLEAGDLKEGLRWLQEAYAKGQDPEVALALAAAYLKAKDYANAYRYAKEAGPAGAFLQAQAAQGLGRRQEALKLLEGIASPQALALRGSLLLEEGQGEEAVAALQAAYEATRDPQVGVNLGAALVLVKRFGQAELVLREVLAKDPSSAAAWYNLGLALRGLGRQAEADRALRQAAALGSREARALLGR” here?
Answer: The protein production was “failed”.
